Measurements from paper PMC5602543.

Key:
[1] = target: MPyV VP1 (major capsid protein of mouse polyomavirus) as VLPs of the VarB structure (mouse polyomavirus (MPyV)) (UniProt P03090); assay: co-purification with VLPs (SDS-PAGE, Western blot, band densitometry); VP1 and FLAG-Cap-tVP3 co-expressed in insect cells; purified VLPs VarB resolved by SDS-PAGE, anti-FLAG blot; densities of Coomassie-stained bands measured
[2] = target: VarC (VP1-Cap-His: entire PCV2b Cap fused to the C-terminus of MPyV VP1) (mouse polyomavirus (MPyV) | porcine circovirus 2b (PCV2b)) (UniProt P03090); assay: native gel or EMSA; blue native PAGE (BN-PAGE) of purified VarC, native 3-12% gradient gel, Gelcode staining

| Substance | stoichiometry N (FLAG-Cap-tVP3 molecules per one particle) [1] | stoichiometry N ([1]; scale: molecules of Cap protein per one VLP) | stoichiometry N [2] |
| --- | --- | --- | --- |
| FLAG-Cap-tVP3 (entire PCV2b Cap fused with truncated MPyV minor capsid protein VP3) | 12 | 14 |  |
| VarC (VP1-Cap-His: entire PCV2b Cap fused to the C-terminus of MPyV VP1) (from UniProt P03090 1-383) |  |  | 10 |
